# Publication PMC9482650, “Quantitative fragmentomics allow affinity mapping of interactomes” (Nature Communications, 2022)
# T1: RAPGEF6, Q8TEU7
# T1 sequence (Q8TEU7 525-625, limits assumed, looked up): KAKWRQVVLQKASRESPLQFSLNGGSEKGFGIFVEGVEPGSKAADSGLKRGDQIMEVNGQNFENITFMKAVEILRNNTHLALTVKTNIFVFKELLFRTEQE
# T2: MPDZ_5, O75970
# T2 sequence (O75970 695-796, limits assumed, looked up): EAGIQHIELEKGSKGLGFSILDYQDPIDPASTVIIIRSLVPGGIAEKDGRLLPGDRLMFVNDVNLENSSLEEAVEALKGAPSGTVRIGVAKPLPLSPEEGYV
# T3: LNX2_3, Q8N448
# T3 sequence (Q8N448 463-564, limits assumed, looked up): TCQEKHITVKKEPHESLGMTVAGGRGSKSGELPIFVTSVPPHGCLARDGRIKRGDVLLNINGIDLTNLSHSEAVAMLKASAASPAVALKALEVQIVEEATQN
# T4: DFNB31_3, Q9P202
# T4 sequence (Q9P202 811-907, limits assumed, looked up): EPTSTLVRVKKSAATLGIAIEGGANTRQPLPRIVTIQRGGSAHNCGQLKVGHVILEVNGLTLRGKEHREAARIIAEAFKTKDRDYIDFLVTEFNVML
# T5: DLG3_3, Q92796
# T5 sequence (Q92796 374-475, limits assumed, looked up): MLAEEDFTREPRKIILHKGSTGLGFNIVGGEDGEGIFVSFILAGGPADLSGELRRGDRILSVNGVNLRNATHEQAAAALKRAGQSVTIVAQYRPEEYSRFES
# T6: MPDZ_12, O75970
# T6 sequence (O75970 1857-1958, limits assumed, looked up): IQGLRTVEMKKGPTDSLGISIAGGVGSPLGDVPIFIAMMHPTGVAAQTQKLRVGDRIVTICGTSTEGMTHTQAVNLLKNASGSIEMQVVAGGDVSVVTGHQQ
# T7: PDZD2_2, O15018
# T7 sequence (O15018 329-429, limits assumed, looked up): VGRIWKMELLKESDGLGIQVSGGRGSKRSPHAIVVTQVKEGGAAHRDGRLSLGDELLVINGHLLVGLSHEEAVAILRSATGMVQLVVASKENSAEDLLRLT
# T8: RHPN1, Q8TCX5
# T8 sequence (Q8TCX5 508-602, limits assumed, looked up): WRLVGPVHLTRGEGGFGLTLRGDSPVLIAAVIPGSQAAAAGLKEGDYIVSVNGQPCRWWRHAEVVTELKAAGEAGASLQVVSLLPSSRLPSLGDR
# T9: GRIP1_2, Q9Y3R0
# T9 sequence (Q9Y3R0 145-248, limits assumed, looked up): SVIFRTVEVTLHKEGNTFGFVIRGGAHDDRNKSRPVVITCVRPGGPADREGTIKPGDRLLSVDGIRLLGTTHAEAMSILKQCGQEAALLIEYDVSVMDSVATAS
# T10: APBA2_1, Q99767
# T10 sequence (Q99767 563-664, limits assumed, looked up): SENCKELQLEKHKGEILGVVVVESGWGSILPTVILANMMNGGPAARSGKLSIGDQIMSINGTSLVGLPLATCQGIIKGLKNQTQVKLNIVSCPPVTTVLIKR
# T11: PTPN13_1, Q12923
# T11 sequence (Q12923 1088-1188, limits assumed, looked up): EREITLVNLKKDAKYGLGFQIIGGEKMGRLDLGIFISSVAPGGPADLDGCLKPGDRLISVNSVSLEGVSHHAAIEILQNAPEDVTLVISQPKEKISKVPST
# T12: FRMPD1, Q5SYB0
# T12 sequence (Q5SYB0 52-145, limits assumed, looked up): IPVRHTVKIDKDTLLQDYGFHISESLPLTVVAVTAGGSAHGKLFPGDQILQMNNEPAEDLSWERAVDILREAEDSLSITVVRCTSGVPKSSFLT
# Assays:
# Assay in all cases: holdup assay
# Design in all cases: key: below the threshold = too weak to quantify, mostly under pKd 3.1 to 4
# Settings in all cases: plain residues with an end cap or a label only (N-terminal biotin on a linker: ado-ado)
# RAPGEF6, Q8TEU7 = target: T1, RAPGEF6, Q8TEU7
# GRIP2_7, Q9C0E4 = target: GRIP2_7, Q9C0E4
# GRIP2_7, Q9C0E4, sequence (Q9C0E4 934-1023): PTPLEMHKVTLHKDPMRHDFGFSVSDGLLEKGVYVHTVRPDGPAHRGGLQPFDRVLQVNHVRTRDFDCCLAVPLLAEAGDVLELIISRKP
# FRMPD2_3, Q68DX3 = target: FRMPD2_3, Q68DX3
# FRMPD2_3, Q68DX3, sequence (Q68DX3 1073-1166): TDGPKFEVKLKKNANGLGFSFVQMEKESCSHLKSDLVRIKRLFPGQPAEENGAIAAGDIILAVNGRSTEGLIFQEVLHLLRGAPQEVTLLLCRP
# MPDZ_5, O75970 = target: T2, MPDZ_5, O75970
# GRIP2_3, Q9C0E4 = target: GRIP2_3, Q9C0E4
# GRIP2_3, Q9C0E4, sequence (Q9C0E4 238-339): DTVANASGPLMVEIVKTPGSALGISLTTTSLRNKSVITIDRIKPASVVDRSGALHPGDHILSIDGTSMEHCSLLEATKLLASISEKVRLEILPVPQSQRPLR
# DLG2_2, Q15700 = target: DLG2_2, Q15700
# DLG2_2, Q15700, sequence (Q15700 189-283): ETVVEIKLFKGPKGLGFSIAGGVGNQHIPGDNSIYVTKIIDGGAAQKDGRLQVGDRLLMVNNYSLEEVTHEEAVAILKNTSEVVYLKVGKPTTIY
# LNX2_3, Q8N448 = target: T3, LNX2_3, Q8N448
# DFNB31_3, Q9P202 = target: T4, DFNB31_3, Q9P202
# DLG3_3, Q92796 = target: T5, DLG3_3, Q92796
# MPDZ_12, O75970 = target: T6, MPDZ_12, O75970
# NHERF4_1, Q86UT5-2 = target: NHERF4_1, Q86UT5-2
# NHERF4_1, Q86UT5-2, sequence (Q86UT5 other isoform, or with tags, fused parts or gaps): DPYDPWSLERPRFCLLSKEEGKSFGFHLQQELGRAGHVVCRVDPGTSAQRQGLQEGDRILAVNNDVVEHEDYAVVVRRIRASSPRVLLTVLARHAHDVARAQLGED
# NOS1, P29475 = target: NOS1, P29475
# NOS1, P29475, sequence (P29475 9-101): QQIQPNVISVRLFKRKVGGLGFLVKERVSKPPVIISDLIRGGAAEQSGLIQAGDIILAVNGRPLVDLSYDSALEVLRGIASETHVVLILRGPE
# PDZD2_2, O15018 = target: T7, PDZD2_2, O15018
# SNX27, Q96L92 = target: SNX27, Q96L92
# RHPN1, Q8TCX5 = target: T8, RHPN1, Q8TCX5
# LNX1_2, Q8TBB1 = target: LNX1_2, Q8TBB1
# LNX1_2, Q8TBB1, sequence (Q8TBB1 371-470): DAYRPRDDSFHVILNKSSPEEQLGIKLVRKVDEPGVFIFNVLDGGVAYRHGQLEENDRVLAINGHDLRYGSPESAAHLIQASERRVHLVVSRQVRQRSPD
# GRIP1_2, Q9Y3R0 = target: T9, GRIP1_2, Q9Y3R0
# APBA2_1, Q99767 = target: T10, APBA2_1, Q99767
# AHNAK1, Q09666 = target: AHNAK1, Q09666
# AHNAK1, Q09666, sequence (Q09666 4-100): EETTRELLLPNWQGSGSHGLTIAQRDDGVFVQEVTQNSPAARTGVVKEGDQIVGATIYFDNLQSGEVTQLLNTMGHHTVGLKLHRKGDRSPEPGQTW
# Inadl_8, Q8NI35 = target: Inadl_8, Q8NI35
# Inadl_8, Q8NI35, sequence (Q8NI35 1425-1530): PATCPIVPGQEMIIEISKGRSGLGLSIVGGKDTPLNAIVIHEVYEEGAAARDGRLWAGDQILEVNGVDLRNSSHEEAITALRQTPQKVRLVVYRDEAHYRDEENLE
# HTRA2, O43464 = target: HTRA2, O43464
# HTRA2, O43464, sequence (O43464 355-458): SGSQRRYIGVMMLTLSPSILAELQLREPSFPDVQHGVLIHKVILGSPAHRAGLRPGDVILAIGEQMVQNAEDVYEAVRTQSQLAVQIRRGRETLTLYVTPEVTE
# PTPN13_1, Q12923 = target: T11, PTPN13_1, Q12923
# FRMPD1, Q5SYB0 = target: T12, FRMPD1, Q5SYB0
# MAGI2_2, Q86UL8 = target: MAGI2_2, Q86UL8
# MAGI2_2, Q86UL8, sequence (Q86UL8 410-522): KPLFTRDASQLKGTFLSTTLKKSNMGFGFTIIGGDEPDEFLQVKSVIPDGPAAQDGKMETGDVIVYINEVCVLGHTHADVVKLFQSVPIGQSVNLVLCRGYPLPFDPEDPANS
"pKd (RAPGEF6, Q8TEU7)","pKd (GRIP2_7, Q9C0E4)","pKd (FRMPD2_3, Q68DX3)","pKd (MPDZ_5, O75970)","pKd (GRIP2_3, Q9C0E4)","pKd (DLG2_2, Q15700)","pKd (LNX2_3, Q8N448)","pKd (DFNB31_3, Q9P202)","pKd (DLG3_3, Q92796)","pKd (MPDZ_12, O75970)","pKd (NHERF4_1, Q86UT5-2)","pKd (NOS1, P29475)","pKd (PDZD2_2, O15018)","pKd (SNX27, Q96L92)","pKd (RHPN1, Q8TCX5)","pKd (LNX1_2, Q8TBB1)","pKd (GRIP1_2, Q9Y3R0)","pKd (APBA2_1, Q99767)","pKd (AHNAK1, Q09666)","pKd (Inadl_8, Q8NI35)",Binder,further results
3.6,below the threshold,below the threshold,below the threshold,below the threshold,3.52,below the threshold,3.64,3.6,below the threshold,3.88,below the threshold,below the threshold,4.76,3.51,below the threshold,below the threshold,below the threshold,below the threshold,below the threshold,"SSALYGESDL [ACTN2, P35609]","pKd (HTRA2, O43464): below the threshold; pKd (PTPN13_1, Q12923): below the threshold; pKd (FRMPD1, Q5SYB0): below the threshold; pKd (MAGI2_2, Q86UL8): below the threshold"
below the threshold,3.69,below the threshold,below the threshold,below the threshold,below the threshold,below the threshold,below the threshold,below the threshold,below the threshold,below the threshold,3.5,below the threshold,3.75,below the threshold,below the threshold,below the threshold,below the threshold,below the threshold,below the threshold,"QPCFNKLFPL [LPXN, O60711]","pKd (HTRA2, O43464): 4.1; pKd (PTPN13_1, Q12923): below the threshold; pKd (FRMPD1, Q5SYB0): below the threshold; pKd (MAGI2_2, Q86UL8): below the threshold"
below the threshold,below the threshold,below the threshold,below the threshold,below the threshold,below the threshold,below the threshold,3.8,below the threshold,below the threshold,4.38,3.57,below the threshold,5.47,4.85,below the threshold,below the threshold,below the threshold,below the threshold,below the threshold,"GQEEQVTTRL [TRPC5, Q9UL62]","pKd (HTRA2, O43464): below the threshold; pKd (PTPN13_1, Q12923): below the threshold; pKd (FRMPD1, Q5SYB0): below the threshold; pKd (MAGI2_2, Q86UL8): below the threshold"
